Experimental data taken from patent US20120309934A1 (GWANGJU INSTITUTE OF SCIENCE AND TECHNOLOGY, published 2012).
Where two headings read alike, the source gives them in different places.

Columns and labels:
[1] = target: T1, BSA (UniProt P02769 25-607); test: phage ELISA, absorbance at 450 nm
T1 construct: Control protein in the input-phage ELISA; also called bovine serum albumin

[2] = target: T2, VEGF121 (human vascular endothelial growth factor) (human, UniProt P15692-9 27-147); test: phage ELISA, absorbance at 450 nm
T2 construct: Immobilised on a CM5 chip by EDC/NHS for SPR and coated on plates for phage ELISA; also called VEGF-Trx cut with thrombin
T2 sequence (looked up): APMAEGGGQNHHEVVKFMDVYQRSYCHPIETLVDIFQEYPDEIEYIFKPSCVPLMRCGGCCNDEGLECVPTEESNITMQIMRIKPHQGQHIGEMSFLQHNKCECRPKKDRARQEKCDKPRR

[3] = target: T3, Human serum albumin (human, UniProt P02768 25-609); test: phage ELISA, absorbance at 450 nm
T3 construct: Bought protein; also called HSA; HAS
T3 sequence (P02768 25-609 limits assumed): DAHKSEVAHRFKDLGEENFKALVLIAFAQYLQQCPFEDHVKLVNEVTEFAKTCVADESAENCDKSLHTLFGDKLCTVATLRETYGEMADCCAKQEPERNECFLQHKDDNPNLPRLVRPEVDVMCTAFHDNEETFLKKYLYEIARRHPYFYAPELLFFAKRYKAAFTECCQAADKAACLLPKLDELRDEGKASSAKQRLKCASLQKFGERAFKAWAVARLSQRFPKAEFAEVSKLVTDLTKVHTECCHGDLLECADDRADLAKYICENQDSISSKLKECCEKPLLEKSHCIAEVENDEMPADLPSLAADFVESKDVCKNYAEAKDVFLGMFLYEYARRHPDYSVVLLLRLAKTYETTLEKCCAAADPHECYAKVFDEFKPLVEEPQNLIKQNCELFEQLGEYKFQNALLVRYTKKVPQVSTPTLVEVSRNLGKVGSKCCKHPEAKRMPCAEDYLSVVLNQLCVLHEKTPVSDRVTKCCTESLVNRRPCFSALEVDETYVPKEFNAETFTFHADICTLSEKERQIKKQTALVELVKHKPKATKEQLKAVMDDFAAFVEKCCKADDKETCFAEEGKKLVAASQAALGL

[4] = target: T4, Streptavidin (UniProt P22629 37-163, limits assumed); test: phage ELISA, absorbance at 450 nm
T4 construct: Control protein in the input-phage ELISA; also called straptavidin
T4 sequence (P22629 37-163 limits assumed): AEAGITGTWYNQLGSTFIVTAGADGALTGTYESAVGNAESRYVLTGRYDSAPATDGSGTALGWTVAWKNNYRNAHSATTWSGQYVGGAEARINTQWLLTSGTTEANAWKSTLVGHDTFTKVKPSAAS

[5] = target: T5, STAT3 protein (UniProt P40763 1-770, limits assumed); test: phage ELISA of single clones on STAT3 against streptavidin
T5 sequence (P40763 whole entry): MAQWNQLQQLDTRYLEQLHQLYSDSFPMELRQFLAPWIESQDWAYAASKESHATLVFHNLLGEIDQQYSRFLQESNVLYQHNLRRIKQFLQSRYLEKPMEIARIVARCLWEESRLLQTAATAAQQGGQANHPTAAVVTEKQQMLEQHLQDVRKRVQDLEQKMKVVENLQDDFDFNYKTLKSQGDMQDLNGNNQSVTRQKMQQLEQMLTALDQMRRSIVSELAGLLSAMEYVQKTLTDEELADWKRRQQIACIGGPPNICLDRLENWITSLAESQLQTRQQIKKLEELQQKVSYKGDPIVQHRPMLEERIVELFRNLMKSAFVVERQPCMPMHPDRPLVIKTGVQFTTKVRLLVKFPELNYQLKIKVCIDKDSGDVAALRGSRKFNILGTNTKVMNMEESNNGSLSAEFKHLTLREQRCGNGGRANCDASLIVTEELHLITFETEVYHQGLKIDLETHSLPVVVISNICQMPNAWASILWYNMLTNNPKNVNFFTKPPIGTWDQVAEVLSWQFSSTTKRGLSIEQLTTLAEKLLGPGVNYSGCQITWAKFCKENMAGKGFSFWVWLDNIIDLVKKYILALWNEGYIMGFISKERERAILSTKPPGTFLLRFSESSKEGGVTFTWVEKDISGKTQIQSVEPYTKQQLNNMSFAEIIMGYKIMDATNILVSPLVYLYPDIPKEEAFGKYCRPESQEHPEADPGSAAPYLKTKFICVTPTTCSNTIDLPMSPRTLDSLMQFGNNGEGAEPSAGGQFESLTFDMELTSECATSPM
Description: STAT3 (10 μg/ml), BSA (10 μg/ml) and streptavidin (10 μg/ml) each was added to 30 wells (50 μl per well) in a 96-well ELISA plate and then kept to stand at 4° C. overnight. Next day, all wells were washed with 0.1% PBST three times, and blocked at room temperature for 2 hrs using 2% skim milk diluted with PBS. Then, the solution was removed and the plate was washed with 0.1% PBST three times. Phage peptide solution (100 μl) amplified from each clone was aliquoted to STAT3-bound wells and streptavidin protein-bound wells and kept to stand at 27° C. for 1.5 hrs. After washing with 0.1% PBST 10 times, HRP-conjugated anti-M13 antibodies (1:1,000 dilution; GE Healthcare) were added to each well and incubated at 27° C. for 1 hr. After washing with 0.1% PBST 5 times, 100 μl TMB was divided into each well to induce colorimetric reaction, followed by stopping the reaction adding 100 μl of 1 M HCl. The absorbance was measured at 450 nm to select phages which had the absorbance above 20-fold higher than BSA. XL1 cells were infected with these phages and spread in plate to produce 100-200 of plaques. […]
The phages recovered from the 4th biopanning step having the highest O/I ratio in each library were isolated as plaques. […] The DNA 10 sequencing was performed for 6 clones showing the absorbance value above 2-fold higher than streptavidin. […]

[6] = target: T5, STAT3 protein; test: SPR (Biacore X), STAT3 (4000 RU) on CM5 chip, peptide at 2, 5 and 7.5 µM
Description: The peptide sequences were identified by DNA sequencing. Two peptides were synthesized (BPB1: QAYYIP […] LWGPEF; BPB2: HGFQWP […] AYQFLK).
The affinity of the bipodal-peptide binder (BPB1: QAYYIP […] LWGPEF) was measured using SPR (Biacore X). The STAT3 protein (4000 RU) was fixed onto the CM5 chip. The concentrations of 2 μM, 5 μM and 7.5 μM the bipodal-peptide binder were used.

[7] = target: T1, BSA; test: phage ELISA, absorbance at 450 nm; remark: listed apart in the source
[8] = target: T6, Peptide fragment of nAchR (Nicotinic acetylcholine receptor), 32 mer, biotinylated (N-terminal biotin); test: SPR (BIAcore X), biotinylated nAchR peptide on SA chip
T6 construct: Synthesised by Anigen; Immobilised on a streptavidin chip for SPR; also called biotinylated nAchR; biotinylated-nAchR peptide
T6 peptide: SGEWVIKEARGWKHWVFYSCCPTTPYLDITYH
Description: (§1) Bipodal-peptide binder peptides specific to ED-B, VEGF or nAchR which were repetitively found in DNA sequencing were synthesized from Anigen Inc. (Korea). Affinity was measured using BIAcore X instrument (Biacore AB, Uppsala, Sweden). ED-B and nAchR were immobilized on streptavidin (SA) chip (Biacore) by injecting 2,000 RU biotinylated-EDB. VEGF was immobilized on CM5 chip (Biacore) using EDC/NHS. PBS (pH 7.4) was used as a running buffer.
(§2) The above-mentioned peptides were synthesized and their affinities to fibronectin ED-B, VEGF, VCAM1, nAchR and HAS were measured using SPR Biacore system (Biacore AB, Uppsala, Sweden).

[9] = target: T6, Peptide fragment of nAchR (Nicotinic …); test: SPR (BIAcore X), biotinylated nAchR peptide on streptavidin chip, synthetic peptide as analyte
Description: as §1, §2

[10] = target: T2, VEGF121 (human vascular endothelial …); test: phage ELISA, absorbance at 450 nm; remark: listed apart in the source
[11] = target: T7, Fibronectin ED-B protein (human fibronectin extra domain B, N-terminal His-tag) (human, UniProt P02751 1266-1356, biotinylated with sulfo-NHS-SS-biotin for biopanning, input-phage ELISA and SPR on the streptavidin chip); test: SPR, synthetic bipodal peptide on ED-B
T7 construct: domain: ED-B; Expressed in E. coli BL21 from pET28b; also called biotinylated-EDB; not shown: N-terminal His-tag from the pET28b vector
T7 sequence (P02751 1266-1356): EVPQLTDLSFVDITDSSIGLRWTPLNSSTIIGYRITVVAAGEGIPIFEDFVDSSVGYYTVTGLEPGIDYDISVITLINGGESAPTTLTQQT
Description: as §1
To verify cooperative effect of bipodal-peptide binder to antigen, we synthesized two peptides removing either N- or C-terminal region of peptide 2 to ED-B having excellent specificity in Table 3a for affinity measurement.

[12] = target: T1, BSA; test: phage ELISA, absorbance at 450 nm; remark: listed apart in the source
[13] = target: T4, Streptavidin; test: phage ELISA, absorbance at 450 nm; remark: listed apart in the source
[14] = target: T7, Fibronectin ED-B protein (human …); test: SPR (BIAcore X), biotinylated ED-B on SA chip
Description: as §1, §2

[15] = target: T7, Fibronectin ED-B protein (human …); test: SPR (BIAcore X), biotinylated ED-B on streptavidin chip, synthetic peptide as analyte
Description: as §1, §2

[16] = target: T7, Fibronectin ED-B protein (human …); test: phage ELISA on 10 coated proteins (streptavidin, ED-B, acetylcholine α1, BSA, VCAM, TNF-α, thrombin, myoglobin, lysozyme, visfatin), anti-M13-HRP
Description: Specificity of recombinant phages to each protein was carried out using ELISA. Each protein (5 μg/ml) was seeded into wells (50 μl per well) in a 96-well ELISA plate and next day, all wells were washed with 0.1% PBST (Tween-20) three times, and blocked at room temperature for 2 hrs using 2% skim milk. Then, the solution was completely removed and the plate was washed with 0.1% PBST three times. Recombinant phages containing the peptide of the present invention were thoroughly mixed with 2% BSA. Each mixture (100 μl) was divided into wells coated with 10 proteins and kept to stand at 27° C. for 2 hrs. After washing with 0.1% PBST 5 times, HRP-conjugated anti-M13 antibodies (1:1,000 dilution; GE Healthcare) were added to each well and incubated at 27° C. for 1 hr. After washing with 0.1% PBST 5 times, 100 μl TMB was divided into each well to induce colorimetric reaction, followed by stopping the reaction adding 100 μl of 1 M HCl. The absorbance was measured at 450 nm.

[17] = target: T1, BSA; test: phage ELISA, absorbance at 450 nm; remark: listed apart in the source
[18] = target: T2, VEGF121 (human vascular endothelial …); test: phage ELISA, absorbance at 450 nm; remark: listed apart in the source
[19] = target: T4, Streptavidin; test: phage ELISA, absorbance at 450 nm; remark: listed apart in the source
[20] = target: T3, Human serum albumin; test: SPR (Biacore)
[21] = target: T4, Streptavidin; test: phage ELISA, absorbance at 450 nm; remark: listed apart in the source
[22] = target: T3, Human serum albumin; test: SPR (Biacore), synthetic peptide; immobilisation of HSA not described

T1 sequence (P02769 25-607 limits assumed): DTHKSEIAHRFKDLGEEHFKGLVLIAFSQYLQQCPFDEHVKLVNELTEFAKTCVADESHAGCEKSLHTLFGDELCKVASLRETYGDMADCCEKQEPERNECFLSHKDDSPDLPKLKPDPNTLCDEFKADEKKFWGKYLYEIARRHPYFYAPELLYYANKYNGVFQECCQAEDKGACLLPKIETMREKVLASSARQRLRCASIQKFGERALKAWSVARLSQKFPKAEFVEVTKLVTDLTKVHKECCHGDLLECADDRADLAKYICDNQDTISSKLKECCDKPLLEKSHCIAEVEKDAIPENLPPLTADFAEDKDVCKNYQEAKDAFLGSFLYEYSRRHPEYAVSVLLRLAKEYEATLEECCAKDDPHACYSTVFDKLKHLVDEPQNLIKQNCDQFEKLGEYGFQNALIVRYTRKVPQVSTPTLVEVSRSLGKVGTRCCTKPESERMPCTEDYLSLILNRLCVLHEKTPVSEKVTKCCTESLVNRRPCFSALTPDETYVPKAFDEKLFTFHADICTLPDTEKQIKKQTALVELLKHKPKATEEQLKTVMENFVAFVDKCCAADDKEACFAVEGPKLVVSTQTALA

B1: STAT3-specific bipodal-peptide binder Peptide 1 (peptide)
peptide: QAYYIPGSWTWENGKWTWKGLWGPEF
notes: also called BPB1; Peptidel
Question: Does B1 bind [1]?
Answer: Result: no binding

Question: Does B1 bind [2]?
Answer: Result: no binding

Question: Does B1 bind [3]?
Answer: Result: no binding

Question: Does B1 bind [4]?
Answer: Result: no binding

Question: And the “fold absorbance over streptavidin” value [5]?
Answer: The value was greater than 2 fold.

Question: And the Kd [6]?
Answer: Its Kd is roughly 1700 nM.

B2: Peptide 1 specific to nAchR (Table 3d), bipodal-peptide binder (peptide)
peptide: EASFWLGSWTWENGKWTWKGKGTLNR
Question: Which results are given for B2?
Answer: binding result [7]: no binding; koff [8]: 0.0085 s⁻¹; kon [8]: 110000 M⁻¹ s⁻¹; Kd [9]: 73 nM

B3: Peptide 1 specific to MyD88 (Table 3f), bipodal-peptide binder (peptide)
peptide: HSHAFYGSWTWENGKWTWKGNPGWWT
Question: Does B3 bind [10]?
Answer: Result: no binding

B4: Peptide 2 specific to fibronectin ED-B (Table 3a), bipodal-peptide binder with tryptophan zipper (peptide)
peptide: HCSSAVGSWTWENGKWTWKGIIRLEQ
Question: Which results are given for B4?
Answer: Kd [11]: 43 nM; binding result [12]: no binding; binding result [13]: no binding; koff [14]: 0.0008 s⁻¹; kon [14]: 10000 M⁻¹ s⁻¹; Kd [15]: 75 nM; fold absorbance over other proteins [16]: > 30 fold

B5: STAT3-specific bipodal-peptide binder Peptide 2 (peptide)
peptide: HGFQWPGSWTWENGKWTWKGAYQFLK
notes: also called BPB2
Question: Does B5 bind [17]?
Answer: Result: no binding

Question: Does B5 bind [18]?
Answer: Result: no binding

Question: Does B5 bind [19]?
Answer: Result: no binding

Question: What about the “fold absorbance over streptavidin” value [5] of the same binder?
Answer: Its value is greater than 2 fold.

B6: Peptide 1 specific to HSA (Table 3e), bipodal-peptide binder (peptide)
peptide: AASPYKGSWTWENGKWTWKGGWRMKM
Question: With B6 as the binder, how does the koff [20] read?
Answer: Its koff is 0.02 s⁻¹.

Question: And the kon [20]?
Answer: The kon was 250000 M⁻¹ s⁻¹.

Question: Does B6 bind [21]?
Answer: Result: no binding

Question: And the Kd [22]?
Answer: Its Kd is 115 nM.
